# Measured values reported in patent US20200079850A1 (SUTRO BIOPHARMA, published 2020).
# Numbering of substitutions follows the chain as printed.
# T1: human LAG3-Fc (R&D Systems #2319-L3) (human, UniProt P18627 23-450)
# T1 construct: Bought protein; also called Human LAG3 (Biacore)
# T1 sequence: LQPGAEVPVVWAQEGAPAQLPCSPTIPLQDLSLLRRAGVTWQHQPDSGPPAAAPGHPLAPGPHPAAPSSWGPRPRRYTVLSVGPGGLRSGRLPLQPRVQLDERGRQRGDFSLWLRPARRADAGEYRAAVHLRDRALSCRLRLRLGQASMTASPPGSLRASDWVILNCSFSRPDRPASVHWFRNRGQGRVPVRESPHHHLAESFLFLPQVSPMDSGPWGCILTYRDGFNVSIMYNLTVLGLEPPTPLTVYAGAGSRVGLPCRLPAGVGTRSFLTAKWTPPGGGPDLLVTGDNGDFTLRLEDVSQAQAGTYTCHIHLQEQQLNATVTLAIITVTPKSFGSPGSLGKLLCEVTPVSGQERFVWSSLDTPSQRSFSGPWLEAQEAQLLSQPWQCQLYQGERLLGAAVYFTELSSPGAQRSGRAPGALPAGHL
# T2: recombinant human LAG3 protein (rhLAG3), HIS-tagged (ACRO) or biotinylated (R&D Cat #2319-C3) (human, UniProt P18627 23-450, biotinylated in part of the assays)
# T2 sequence: T1 sequence
# T3: human LAG3 expressed on the cell surface (CHO-LAG3, 293T-LAG3 cells) (human, UniProt P18627 23-525)
# T3 construct: Stably transfected CHO or HEK293T cells; also called Human LAG3 (CHO); Human LAG3 (293T)
# T3 sequence: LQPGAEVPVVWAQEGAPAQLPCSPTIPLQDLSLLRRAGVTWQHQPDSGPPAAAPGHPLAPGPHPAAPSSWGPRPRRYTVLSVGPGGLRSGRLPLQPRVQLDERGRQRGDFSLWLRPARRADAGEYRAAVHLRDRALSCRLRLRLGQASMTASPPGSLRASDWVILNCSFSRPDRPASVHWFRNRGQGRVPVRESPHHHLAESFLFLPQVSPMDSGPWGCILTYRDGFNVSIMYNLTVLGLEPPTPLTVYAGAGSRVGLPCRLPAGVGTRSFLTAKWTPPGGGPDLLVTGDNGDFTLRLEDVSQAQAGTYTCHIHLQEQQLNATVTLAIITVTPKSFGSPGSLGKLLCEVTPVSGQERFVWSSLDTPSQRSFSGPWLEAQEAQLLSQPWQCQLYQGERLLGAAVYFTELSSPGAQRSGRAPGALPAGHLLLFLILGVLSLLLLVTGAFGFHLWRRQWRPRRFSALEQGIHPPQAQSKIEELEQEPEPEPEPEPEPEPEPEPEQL
# B1: SRP1496-B08 (antibody, V domains shown)
# VH: EVQLVESGGGLVQPGGSLRLSCAASGFNINDTYIHWVRQAPGKGLEWVGIIDPYDGATDYADSVKGRFTISADTSKNTAYLQMNSLRAEDTAVYYCAREIFGFYWNPFDYWGQGTLVTVSS
# VL: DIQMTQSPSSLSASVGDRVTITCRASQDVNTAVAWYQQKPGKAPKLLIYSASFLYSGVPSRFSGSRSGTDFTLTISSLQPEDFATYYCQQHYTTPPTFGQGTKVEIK
# B2: SRP1496-A04 (antibody, V domains shown)
# VH: B1 VH
# VL: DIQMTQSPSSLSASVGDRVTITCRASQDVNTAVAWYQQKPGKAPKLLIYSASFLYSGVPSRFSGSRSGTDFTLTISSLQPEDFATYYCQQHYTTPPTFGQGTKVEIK
# B3: SRP1496-A03 (antibody, V domains shown)
# VH: B1 VH
# VL: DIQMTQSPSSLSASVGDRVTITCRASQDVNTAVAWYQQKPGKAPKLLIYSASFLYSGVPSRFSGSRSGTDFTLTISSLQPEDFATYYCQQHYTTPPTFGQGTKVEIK
# B4: SRP1648-E02 (antibody, V domains shown)
# VH: B1 VH with T32N, A57F, D59A, I100S, F101I, W105L
# VL: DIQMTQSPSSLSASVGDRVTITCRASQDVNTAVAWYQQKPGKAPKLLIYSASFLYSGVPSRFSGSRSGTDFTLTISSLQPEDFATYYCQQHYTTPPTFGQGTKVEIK
# B5: SRP1648-B07 (antibody, V domains shown)
# VH: B1 VH with N30A, Y33F, A57D, F101L
# VL: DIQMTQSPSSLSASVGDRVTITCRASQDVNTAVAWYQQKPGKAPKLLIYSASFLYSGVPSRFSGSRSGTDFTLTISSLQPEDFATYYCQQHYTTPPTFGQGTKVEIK
# notes: IgG scaffold with human constant domains
# B6: SRP1627-A11 (scFv, V domains shown)
# VH: QVQLVQSGAEVKKPGSSVKVSCKASGFNINDYFMHWVRQAPGQGLEWIARIDPWNGDTEYAPKFQGRVTITADESTSTAYMELSSLRSEDTAVYYCGMSDALDYWGQGTLVTVSS
# VL: DVVMTQSPLSLPVTLGQPASISCKSSQSLLDSDGKTYLNWFQQRPGQSPRRLIYLVSKLDSGVPDRFSGSGSGTDFTLKISRVEAEDVGVYYCWHGINFPQTFGQGTKVEIK
# B7: SRP1627-B01 (scFv, V domains shown)
# VH: B6 VH with N30T, Y32L, F33Y, V68A, G97I, M98A, D100E, A101M, L102V
# VL: B6 VL with W94S, H95T, G96Y, I97S, N98H
# B8: SRP1627-A02 (scFv, V domains shown)
# VH: B6 VH
# VL: B6 VL with W94S, I97N, N98P, F99V
# B9: h5G11-2 (scFv, V domains shown)
# VH: B6 VH with N30K, F33Y, R50W, W54E, G97N, M98A, S99P
# VL: B6 VL with H95Q, I97S, N98H
# Target: T1, human LAG3-Fc (R&D Systems #2319-L3)
# Experiment: SPR (Biacore), antibody captured by anti-Flag, LAG3-Fc as analyte, 25 C
# Procedure: Anti-Flag M2 IgG (Sigma-Aldrich # F9291) was immobilized onto a CMS chip (GE Life Sciences) using amine coupling chemistry (from Amine Coupling Kit, GE Life Sciences). The immobilization steps were carried out at a flow rate of 25 μL/min in 1×HBS-EP+ buffer (GE Life Sciences; 10×Stock diluted before use). The sensor surfaces were activated for 7 min with a mixture of NHS (0.05 M) and EDC (0.2 M). The Anti-Flag M2 IgG was injected over all 4 flow cells at a concentration of 25 μg/mL in 10 mM sodium acetate, pH 4.5, for 7 min. Ethanolamine (1 M, pH 8.5) was injected for 7 min to block any remaining activated groups. An average of 12,000 response units (RU) of capture antibody was immobilized on each flow cell.
# Off-rate and kinetic binding experiments were performed at 25° C. using 1×HBS-EP+buffer. Test and control antibodies were injected over the Anti-Flag surface at concentrations of 5-10 μg/mL for 12 seconds at a flow rate of 10 μL/min on flow cells 2, 3 and 4, followed by a buffer wash for 30 seconds at the same flow rate. Kinetic characterization of antibody samples was carried out with a single concentration of antigen (for off-rate ranking) or a dilution series of antigen (for kinetic characterization) and 1 injection of 0 nM antigen. After capturing ligand (antibody) on the anti-Flag surface, the analyte (human LAG3-Fc, R&D Systems #2319-L3; or cynomolgus LAG3-Fc, accession # NC 022282.1) was bound at 50, 25, 12.5, 6.25, and 0 nM for 180 seconds, followed by a 600 second dissociation phase at a flow rate of 50 μl/min Between each ligand capture and analyte binding cycle, regeneration was carried out using 2 injections of 10 mM glycine pH 2.0 for 30 seconds at 30 μL/min, followed by a 30 second buffer wash step.
# The data were fit with the Biacore T200 Evaluation software, using a 1:1 Langmuir binding model. KD (affinity, nM) was determined as a ratio of the kinetic rate constants calculated from the fits of the association and dissociation phases.
Kd [nM],koff [s⁻¹],kon [M⁻¹ s⁻¹],Binder
21.3,0.0279,1.31e+06,B1
15.2,0.0196,1.29e+06,B2
18.9,0.0234,1.24e+06,B3
2.27,0.122,5.35e+07,B4
2.46,0.0275,1.12e+07,B5
13.5,0.00422,312000,B6
14.7,0.0152,1.04e+06,B7
43.3,0.071,1.64e+06,B8
863,0.0023,2670,B9

# Target: T2, recombinant human LAG3 protein …
# Experiment: flow cytometry competition, rhLAG3 binding to Daudi cells; competitor MHCII
# Procedure: DAUDI cells express high levels of Major Histocompatibility Class II (MHCII) molecules, a natural ligand for LAG3, on the cell surface. DAUDI cells were used to screen for antibodies that inhibit binding of HIS-tagged (ACRO) or biotinylated recombinant human LAG3 protein (rhLAG3) to MHCII expressed on the cell surface.
# DAUDI cells were cultured in RPMI w/10% FCS Pen/Strep and Gln and split every 3-4 days at 10^5 cells/ml. Cells were washed 2× with FACS buffer (PBS w/2% FCS), […] at a final concentration of 1×10⁶ cells/ml and seeded at 100 μl per well on 96 well polypropylene plates. Plates were spun at 1500 rpm for 5 minutes and cell pellets were suspended in 50 μl FACS buffer containing 8 point 1:3 dilutions (2× concentrated) of anti-LAG3 antibody variants, starting from high concentration of −600 nM. 50 μl FACS buffer containing 10-20 μg/ml of the HIS-tagged rhLAG3 protein or 40 μg/ml of the biotinylated rhLAG3 protein were then added to the cells. Cell were then incubated in ice for 1 hr, washed with FACS buffer and incubated for 1 hr in ice with 50 μl FACS buffer containing 2 μg/ml R-Phycoerythrin-conjugated Streptavidin (eBiosciences) or 1 μg/ml R-Phycoerythrin-conjugated anti-HIS IgG (Abcam). Cell were washed 2× with FACS buffer and fixed for 10 minutes in 200 μl PBS w/2% PFA prior to acquisition.
row,IC50 [nM],Binder
1,28.6,B1
2,55.8,B2
3,41.3,B3
4,4.1,B4
5,4.5,B5
6,1.6,B6
7,0.4,B7
8,1.7,B8

# Target: T3, human LAG3 expressed on the cell …
# Experiment: flow cytometry, 293T cells expressing human LAG3
# Procedure: LAG3 antibody variants were tested in a fluorescence-activated cell sorting (FACS) cell-binding assay. Chinese Hamster Ovary (CHO) cells or HEK293T cells stably expressing the human target molecule LAG3 on the cell surface (CHO-LAG3, 293T-LAG3) were used to screen for cell binders by flow cytometry. Parental CHO or 293T cells were used as a negative control to determine background-binding levels. Cells were cultured in RPMI with 10% FCS Penicillin/Streptomycin (or Pen/Strep) and glutamine (or Gln) and split every 3-4 days at 10⁵ cells/ml.
# A mix of parental CHO cells and CHO-LAG3 cells (or 293T and 293T-LAG3 cells) was prepared as follows: Parental CHO cells were washed 2× in PBS then incubated in PBS containing 1 nM CellTrace™ Oregon Green488® (Life Technologies) at 37° C. for 30 minutes. […] Parental CHO cells and CHO-LAG3 cells were then mixed to obtain a 1:1 cell suspension and seeded at 100 μl per well on 96 well polypropylene plates. Plates were spun at 1500 rpm for 5 minutes and cell pellets were suspended in 50 μl FACS buffer containing 6-12 point dilutions of anti-LAG3 variants starting from concentrations of ˜100-200 nM antibody, dispensed using BioMekFX (Beckman Coulter). Cells were then incubated on ice for 1 hr, washed with FACS buffer and incubated for 1 hr on ice with 50 μl FACS buffer containing 2.5 μg/ml R-Phycoerythrin-conjugated Goat Anti-Human IgG (Jackson ImmunoResearch) or AF647-conjugated Goat Anti-mouse IgG (Life Technologies) dispensed using BioMekFX (Beckman Coulter). Cells were then washed 2× with FACS buffer and fixed for 10 minutes in 200 μl PBS with 2% PFA prior to fluorescence detection. Samples were acquired using a Beckton Dickinson LSRII FACS. Mean Fluorescence Intensity of LAG3 antibody binding was analyzed using Tree Star, Inc. FlowJo® software.
row,Kd [nM],Binder
1,39.4,B1
2,35,B2
3,40.6,B3
4,0.74,B6
5,0.19,B7
6,0.97,B8
7,78,B9
